{"source": "patent US10494417B2", "about": "“Peptide inhibitors of BCR-ABL oligomerization” (University of Utah Research Foundation, priority 2014, dated 2019)", "molecules": {"B1": {"name": "CCmut3: modified Bcr-Abl coiled-coil domain (residues 1-72) with mutations C38A, K39E, S41R, L45D, E48R, Q60E (protein)", "chain": "MVDPVGFAEAWKAQFPDSEPPRMELRSVGDIEQELERAEARIRRDEQRVNQERFRMIYLETLLAKEKKSYDR"}}, "key": {"mCherry-tagged Bcr-Abl": {"target": "T1, mCherry-tagged Bcr-Abl (Homo sapiens, UniProt P00519+P11274)", "T1 construct": "expressed in transfected cells; host or cells: Cos-7", "T1 sequence (P11274 1-72 limits assumed)": "B1 chain with A38C, E39K, R41S, D45L, R48E, E60Q", "assay": "Colocalization analysis in Cos-7 cells", "format": "cell-based", "settings": "EGFP-tagged CC^mut3 co-transfected with mCherry-tagged Bcr-Abl", "procedure": "Next, the ability of CC^mut3 to bind to BCR-ABL in live cells was analyzed (FIG. 8B). Colocalization analysis was performed by co-transfecting mCherry-tagged Bcr-Abl and EGFP-tagged CC^mut3 into Cos-7 cells."}, "Ba/F3-p210-T315I cells [1]": {"test_system": "Ba/F3-p210-T315I cells", "assay": "Annexin V/7-AAD apoptosis assay in Ba/F3 BCR-ABL1 T315I cells", "format": "cell-based, mouse", "settings": "72 h, CCmut3 vs EV", "procedure": "(§1) Assays were run in triplicate (n=3).\n(§2) For analysis of apoptosis and cell death, cells were pelleted and resuspended in Annexin V-binding buffer (BD Biosciences), stained with anti-Annexin V-APC (BD Biosciences or Life Technologies) and 7-AAD (BD Biosciences or Life Technologies) and analyzed on a BD FACSCanto flow cytometer. In addition to the APC and 7-AAD channels, GFP- and mCherry-positive cells were also recorded.\nas §2, with “apoptosis and necrotic cell death,” for “apoptosis and cell death,”, “anti-Annexin V-APC and 7-AAD” for “anti-Annexin V-APC (BD Biosciences or Life Technologies) and 7-AAD”"}, "[2]": {"test_system": "Ba/F3 cells expressing BCR-ABL1E255V", "assay": "Annexin V/7-AAD apoptosis assay in Ba/F3 BCR-ABL1 E255V cells", "format": "cell-based, mouse", "settings": "72 h, CCmut3 vs EV", "procedure": "as §2\nas §2, with “apoptosis and necrotic cell death,” for “apoptosis and cell death,”, “anti-Annexin V-APC and 7-AAD” for “anti-Annexin V-APC (BD Biosciences or Life Technologies) and 7-AAD”"}, "[3]": {"test_system": "CD34+ cells from newly diagnosed CML patients", "assay": "Colony forming assay of CD34+ cells from newly diagnosed CML patients", "format": "cell-based, human", "settings": "for colony formation, in words: day 14 CFU-GM, lentiviral CCmut3 or 2.5 μM imatinib vs EV", "procedure": "Primary cells were seeded in Methocult H4230 (Stem Cell Technologies) as described previously (Fleischman, A. G., et al. (2011). Blood 118, 6392-6398). Briefly, lentivirus-infected (GFP^+) cells were isolated by FACS and resuspended in RPMI1640. Cells were plated in Methocult H4230 at 1,000 cells/mL supplemented with 1× StemSpan CC100 cytokine mix (StemCell Technologies) with or without TKI as indicated in each experiment. Plates were incubated at 37° C. in a 5% CO2 humidified incubator for 14 days. Colony forming units of granulocyte-macrophage (CFU-GM) were counted on day 14 using an inverted microscope.\nFollowing selection of transfected cells by cell sorting, methylcellulose colony assays were performed by plating in 0.9% methylcellulose (Stem Cell Technologies; M3234 for Ba/F3 BCR-ABL1 native and mutant lines; M3434 for Ba/F3 parental cells; H4230 for CML patient samples). mCherry-positive Ba/F3 cells (1.1×10^3 cells/plate) or GFP-positive primary CML CD34+ cells (1×10^3 cells/plate) were seeded per dish in duplicate. In the case of CML patient samples, cells were plated in the presence of 1× StemSpan CC100 cytokine cocktail (StemCell Technologies). All cells were plated with or without the indicated TKI in three or more independent experiments. Plates were incubated at 37° C. in a 5% CO2 humidified incubator. Colonies were counted 7-14 days later in an area of 50 μm2 per dish using an inverted microscope."}, "parental Ba/F3 cells": {"test_system": "parental Ba/F3 cells", "assay": "Annexin V/7-AAD apoptosis assay in transfected parental Ba/F3 cells", "format": "cell-based, mouse", "settings": "72 h, CCmut3 vs EV", "procedure": "as §2\nas §2, with “apoptosis and necrotic cell death,” for “apoptosis and cell death,”, “anti-Annexin V-APC and 7-AAD” for “anti-Annexin V-APC (BD Biosciences or Life Technologies) and 7-AAD”"}, "[4]": {"test_system": "Ba/F3 cells expressing native BCR-ABL1 (Ba/F3-p210)", "assay": "Annexin V/7-AAD apoptosis assay in transfected Ba/F3-p210 cells", "format": "cell-based, mouse", "procedure": "as §1, §2\nas §2, with “apoptosis and necrotic cell death,” for “apoptosis and cell death,”, “anti-Annexin V-APC and 7-AAD” for “anti-Annexin V-APC (BD Biosciences or Life Technologies) and 7-AAD”"}, "Ba/F3-p210-T315I cells [5]": {"test_system": "Ba/F3-p210-T315I cells", "assay": "Colony forming assay of Ba/F3 BCR-ABL1 T315I cells", "format": "cell-based, mouse", "settings": "for colony formation, in words: CCmut3 gene delivery (transfection; b502 lentiviral infection) vs EV; for reduction in CFCs / colony forming ability: CCmut3 vs EV", "procedure": "Both EGFP and EGFP-CC^mut3 were transfected into separate groups of cells on day 0. One day following transfection, 1.0×10^6 cells per treatment group were collected and re-suspended in 1.0 mL of PBS. Through serial dilutions, 1.0×10^3 cells in IMDM (Isocove's modified Dulbecco's media) with 2% FBS were seeded into methylcellulose medium in the absence of cytokines (MethoCult H4230 for K562 cells and MethoCult M3234 for p210 and p210-T315I cells) or in the presence of cytokines (MethoCult GF M3434 for parental Ba/F3 cells). Ponatinib was then added in the correct molar amounts (0, 100 pM, 1 nM, or 10 nM) to the methylcellulose medium. Colonies formed were counted after 7 days of incubation. All reagents were purchased from Stem Cell Technologies, Vancouver, BC, Canada. Assay was run three separate times (n=3) in duplicate.\nBriefly, mCherry-positive Ba/F3 cells were re-suspended in IMDM with 2% FBS (Stem Cell Technologies) at a concentration of 10,000 cells/mL. Three hundred microliters of this dilution was added to 3 mL of Methocult media (M3434—Ba/F3 p210 wild-type and mutant lines or M3234—Ba/F3 parental, Stem Cell Technologies). Approximately 1100 cells, or 1.2 mL, were seeded per dish in duplicate for each transfection. Colonies were counted 7 days later in an area of 100 μm^2 per dish.\nAll cells were plated with or without the indicated TKI in three or more independent experiments. Plates were incubated at 37° C. in a 5% CO2 humidified incubator. Colonies were counted 7-14 days later in an area of 50 μm2 per dish using an inverted microscope."}, "Ba/F3-p210-T315I cells [6]": {"test_system": "Ba/F3-p210-T315I cells", "assay": "Trypan blue proliferation assay of transfected Ba/F3-p210-T315I cells", "format": "cell-based, mouse", "settings": "CC^mut3 alone, trypan blue exclusion, 72 and 96 h", "procedure": "Cell counts were performed using a standard light microscope."}}, "note": "Numbering of substitutions follows the chain as printed. Names may count otherwise. “And” between values parts separate entries of the source, which are not always exact repeats. Equal values may be shown once. “Also recorded” adds a separate entry of the source.", "data": [{"molecule": "B1", "values": [{"measurement": "intracellular colocalization with BCR-ABL (Costes' coefficient)", "setting": "mCherry-tagged Bcr-Abl", "result": "intracellular colocalization"}, {"measurement": "apoptosis, in words", "setting": "Ba/F3-p210-T315I cells [1]", "result": "increase of apoptosis"}, {"measurement": "increase in apoptosis", "setting": "Ba/F3-p210-T315I cells [1]", "result": "6-8 fold and > 5 fold"}, {"measurement": "apoptosis, in words", "setting": "Ba/F3-p210-T315I cells [1]; listed as CC^mut3", "result": "significant shift toward the apoptotic fraction"}, {"measurement": "increase in apoptosis", "setting": "Ba/F3-p210-T315I cells [1]; listed as CC^mut3", "result": "6-8 fold"}, {"measurement": "apoptosis, in words", "setting": "[2]", "result": "increase of apoptosis"}, {"measurement": "increase in apoptosis", "setting": "[2]", "result": "6-8 fold and > 5 fold"}, {"measurement": "apoptosis, in words", "setting": "[2]; listed as CC^mut3", "result": "significant shift toward the apoptotic fraction"}, {"measurement": "increase in apoptosis", "setting": "[2]; listed as CC^mut3", "result": "6-8 fold"}, {"measurement": "colony formation, in words", "setting": "[3]", "result": "equally effective in reducing colony number"}, {"measurement": "colony formation, in words", "setting": "[3]; listed as CC^mut3", "result": "reduced to similar degree"}, {"measurement": "inhibition of colony formation", "setting": "[3]; four newly diagnosed patient samples, day 14, normalized to EV", "result": "~60", "unit": "%"}, {"measurement": "apoptosis, in words", "setting": "parental Ba/F3 cells", "result": "no effect on parental Ba/F3 cells; also recorded: no effect on the parental cell line"}, {"measurement": "apoptosis, in words", "setting": "parental Ba/F3 cells; listed as CC^mut3", "result": "not affected; also recorded: no effect on the parental cells"}, {"measurement": "apoptosis, in words", "setting": "[4]; 72 h, CCmut3 vs EV", "result": "increases apoptosis"}, {"measurement": "increase of apoptotic cells", "setting": "[4]; 72 h, CCmut3 vs EV", "result": "approximately 3 fold"}, {"measurement": "increase in apoptotic population", "setting": "[4]; CC^mut3 versus EV control (FIG. 14B)", "result": "more than 30%"}, {"measurement": "reduction of transformative ability compared to EGFP control", "setting": "Ba/F3-p210-T315I cells [5]; CC^mut3 alone, Ba/F3-p210-T315I", "result": "~40", "unit": "%"}, {"measurement": "colony formation, in words", "setting": "Ba/F3-p210-T315I cells [5]", "result": "significantly fewer colonies per unit area"}, {"measurement": "colony formation, in words", "setting": "Ba/F3-p210-T315I cells [5]; listed as CC^mut3", "result": "Inhibition in colony formation"}, {"measurement": "reduction in CFCs / colony forming ability", "setting": "Ba/F3-p210-T315I cells [5]", "result": "> 10", "unit": "fold"}, {"measurement": "reduction in CFCs / colony forming ability", "setting": "Ba/F3-p210-T315I cells [5]; listed as CC^mut3", "result": "more than 10 fold"}, {"measurement": "cell proliferation", "setting": "Ba/F3-p210-T315I cells [6]", "result": "inhibit Ba/F3-p210-T315I cell proliferation"}]}]}
